Results reported in the DeepSol protein solubility set.

assay: soluble on expression in E. coli; label from the status in PepcDB or PDB records

Question: For “MKHYTVAINGLPQEFEGFTILHLTDLHAKKYGDQQDKLIRLINRQNFDMVAMTGDFIDKDNPDLEPTLELIQGLAAKPIFFVPGNHEWRYDFSIKSSLEEHGVKILDNKNAELARGDARLWIAGVDDPYLHRDKLEEALHGIADAQPKLLLAHAPNIFKPAAESGVELVLVGHTHGGQVRLPLIGAIVAPGQGLFPQYDYGHFTAGSTNMIVNGGLGESTLPLRFCSRPEIVLVKLVSAPLEHHHHHH”, which “soluble on expression in E. coli” value is on record?
Answer: not soluble

Question: Which “soluble on expression in E. coli” value does the source give for “MGHHHHHHSHMLIPKTMGKMSPGHVRDLHGSPSHHRPRGPGGKSGFVGWAQGLCAVCSLGTWCPVSQLLQPWLKGANIELGLWLQRVEAPSIGSFHVMLSLWVQRCQELRFGNLCLDFRIYMETPGCPGKSLLQGQSPHGEPLLGQCGREMWGRAPTQSPCWGTA” here?
Answer: not soluble

Question: For “GPGSMLPHSQPLVLPMEPSNWAVMPPTGVEMPMEPGTFEDISTAGWIGPRRRSFCGPQTEEEWEDLMIHRSSLRRESGQGTGVGLSGSGCLLGTDDPDRDVLCEYYGDMANRDEKVLSCGLRGQEGRRVLGNKPLRQRPNGPMRERTNYGSLASRRQRVMEEGGVWGDVEVCCVPVEPWHPMDMVCLGEERPEDVCVLRQTDTELYGTGRAFATDGKP”, which “soluble on expression in E. coli” value is on record?
Answer: not soluble

Question: For “MNRIEHYHDWLRDAHAMEKQAESMLESMASRIDNYPELRARIEQHLSETKNQIVQLETILDRNDISRSVIKDSMSKMAALGQSIGGIFPSDEIVKGSISGYVFEQFEIACYTSLLAAAKNAGDTASIPTIEAILNEEKQMADWLIQNIPQTTEKFLIRSETDGVEAKK”, which “soluble on expression in E. coli” value is on record?
Answer: soluble

Question: For “MKDQLGFRIVLCSAVFIILTQNRALADLDSESHEVNSESVGEEQWEMVQRKGMQFTLNGQPFYVNGFNTYWMMTLAADNSTRGKVTEVFQQASAVGMTVGRTWAFNDGQWRALQKSPSVYDEEVFKALDFVLSEARKYKIRLILSLVNNWDAYGGKAQYVKWGNASGLNLTSDDDFFTNPTLRNFYQSHVRTVLNRVNTFTNITYKNDPTIFAWELMNEPRCPSDPSGDKLQSWIQEMAVFVKSLDAKHLVEIGLEGFYGPSAPARTRFNPNPYAAQVGTDFIRNNQVLGIDFASVHVYPDSWISPAVSNSFLEFTSSWMQAHVEDAEMYLGMPVLFTEFGVSAHDPGFNTSFRDMMLNTVYKMTLNSTRKGGAGAGSLVWQVFPQGAEFMDDGYAVYLTRAHTASKIISLQSKRLAIFNSLCSWRCRWGCKKKNQTALDALLSHDEL”, which “soluble on expression in E. coli” value is on record?
Answer: soluble

Question: For “MEHQTTRNVILITEGSLQSSLLKDVLETKLGINVLLITPENLASPFVRNQSISAIVLDYSVITDEVFARYMEFKTPNLTGTLEILINCDKSISTDELFVWGALAGIFYTSDDIQTLQTGIDKVLQGDMWFSRKFAQQYITHLRRHSRPINKNVPA”, which “soluble on expression in E. coli” value is on record?
Answer: not soluble

Question: For “MSLLSYRHGFHAGNQADVFKHSALFSFLKVYTQKQKPFTAFDLNAGSASYNLLSEWSLKTGEAEEGIIRFLDLYKKEKLPLPIPEGFKAYLDFCLKNYDENSSYAGSPEIIRSFLQKESNLILCDLHSAEAEKLKELYKRVENVHVHKRDCYEAVRALTPPLPIRGFALFDPSYEVDSDYTAIAESVEKVCKKWPIGIFIIWYPILNHKTEECRNLKDRISKAMNNKVLNIEVKHFSNKIDSENEYGLQGSGLLITNPPWGLEEKLKEICEYVEKVSAGLDEGHHHHHH”, which “soluble on expression in E. coli” value is on record?
Answer: soluble

Question: Which “soluble on expression in E. coli” value does the source give for “MPLRQDLTPVVITVTGADRHGVTAATFRVLSANNVQILDVEQSKFRGFLSIAVYAGIKASMIDSVEQGLRDTLSVHGQSVSLSVESRTEVSRPRSTHVVVILGNPVGAEDIWKIGQTMADFGANIDGIRGISDYPVTGLELRVTVADPAPGAAEPLRKALAALTTELGVDIVIERAGLQR” here?
Answer: not soluble

Question: With “MSVTAPSARPAPDHHAQFLQLLDTSLTQNAFIKLVLAKHVGPEADLQRLIIKQLTVKEQPCLSFVYRYKTRDITKNFSLDEGIAAIAELLPAAFKNAHLLTLTDEVQLEYSKKGKSSLFKGKPQTQRDAPSAEHNREKNRFLDLSRPFLADLGVTNKQHELIPAMSRKWKQINKFIEVFSHALGSSPIKLDQPVRVADFGSGKGYLTFAIHDYLRNTLKAEGEVTGVELREDMVTLCNAAAQRLEHPGLVFKCGDVRSVAPSQLEVMIALHACDIATDYAIHTGIRSGAAIIMCSPCCHKQIRQQIQSPQLLKPMLQYGLHLGQQAEMVTDSLRALFLEACGYETKVFEFISLEHTNKNKMILAVKRAEPQDPSQLLARIEELKAFYQISEHCLETLLKADGYLG” as the sequence, how does the “soluble on expression in E. coli” value read?
Answer: soluble

Question: With “MGSDKIHHHHHHMSRRQHFAKVTPLLHRHGDYFVFIGFDYGTANCSVAVMRDGKPHLLKMENDSTLLPSMLCAPTREAVSEWLYRHHDVPADDDETQALLRRAIRYNREEDIDVTAKSVQFGLSSLAQYIDDPEEVWFVKSPKSFLGASGLKPQQVALFEDLVCAMMLHIRQQAQAQLPEAITQAVIGRPINFQGLGGDEANTQAQGILERAAKRAGFRDVVFQYEPVAAGLDYEATLQEEKRVLVVDIGGGTTDCSLLLMGPQWRSRLDREASLLGHSGCRIGGNDLDIALAFKNLMPLLGMGGETEKGIALPILPWWNAVAINDVPAQSDFYSSANGRLLNDLVRDAREPEKVALLQKVWRQRLSYRLVRSAEECKIALSSVAETRASLPFISNELATLISQRGLESALSQPLTRILEQVQLALDNAQEKPDVIYLTGGSARSPLIKKALAEQLPGIPIAGGDDFGSVTAGLARWAEVVFR” as the sequence, how does the “soluble on expression in E. coli” value read?
Answer: not soluble

Question: Which “soluble on expression in E. coli” value does the source give for “MSLRVENLRSSTYRNGPTGLPNRARFSEDLDAVLLQRTADSAATAIAVDLCGSDYFRDMVKALGWDYADGYVALAYKRLISKLPAGTALYRLDTTTFAFMVTTADPLRLSALCSKISKGFVAPLEHQGIPHTAVASIGAVLLETSYGAADTLRSLTTSVDVAREHCLTWSLYEREGHHHHHH” here?
Answer: not soluble

Question: With “MSAVGEFPGSLGAKVFRLNGGLPGAKVGKNTGTSVKFGESSTQALIRAAYRQVFGRDLYEGQRLSVAEIQLENGDISVREFIKRLAKSELFLKLYWAPHYVCKAIEYMHRRLLGRPTYGRQEMNQYFDIASKQGFYAVVEAMIDSKEYSDAFGEDTVPYERYLEHHHHHH” as the sequence, how does the “soluble on expression in E. coli” value read?
Answer: soluble

Question: For “MRQHRPALELSRLPELLSRIDGYKGQPVTRLAVMLNLLVFIRSSELRYARWSEIDIDNSMWTIPAEREPLPGVKFSHRGSKMRTPHLVPLSKQVVAILAELQTWAGENGLIFTGAHDPRKPISENTVNKALRVMGYDTTQEVCGHGFRAMACSALIESGLWSRDAVERQMSHQELEHHHHHH”, which “soluble on expression in E. coli” value is on record?
Answer: not soluble

Question: Which “soluble on expression in E. coli” value does the source give for “MEFYPIHILLSKLEEEIAFQQKMATTYLVSPPKYSPEVIGTVSETLRRISADLKLVSLILGELEEVQERDIKEEALILSSESLSLISLLLPAIEKYAPFFLESMKVERKPILEKLEDVMAEIENAIEKLELSSSREIIRSLEELAQSLEISLKMGERILERES” here?
Answer: not soluble

Question: For “MNYKADIGVFGGSGFYSFLENVEEIEMETPYGKPSDKIAIATYEGKRIAFLPRHGKNHQFPPHMIPYRANLYAMKKLGVKKILAPTSSGSLRADIKPGDFVICDQFVDRTTGRKDTFYDGPVTKHISSAHPYCPELRKIAIQVGKDLGITTHEKGTVVVIQGPRFSTVAESRWFSKMGWDVINMTQYPEVYLARELGICYANIALITDYDAGLEGRDDIEPVTEEAVLKVFAENNEKVKNMLFEVIKRIDLENSNCTCCNVDLSGLDL”, which “soluble on expression in E. coli” value is on record?
Answer: soluble

Question: Which “soluble on expression in E. coli” value does the source give for “SSTAGDGERGTVGQEDSAAARPFRFSPEPTLEDIRRLHAEFAAERDWEQFHQPRNLLLALVGEVGELAELFQWKSDTEPGPQAWPPKERAALQEELSDVLIYLVALAARCHVDLPQAVISKMDTNRQRYPVHLSRGSACKYTDLPRGTISENQAVGAGDPASELRDQAST” here?
Answer: soluble

Question: With “MGSDKIHHHHHHMRRLFAIGEALIDFIPNVTHSKLKDVEQFSRQVGGAPCNVAATVSKLGGKSEMITQLGNDAFGDIIVETIEQLGVGTQYIKRTNKANTALAFVSLQDDGQRDFSFYRKPSADMLYQPENIDDIQVFQDDILHFCSVDLIESDMKYAHEKMIEKFESVDGTIVFDPNVRLPLWEDKLECQRTINAFIPKAHIVKISDEELLFITGKRNEDEAIQSLFRGRVNVVIYTQGAQGATIYTKDDYRIHHEGYQVQAIDTTGAGDAFIGAIIYCILESRYSECKDLFKEKGKDILAFSNRVAALTTTKHGAIESLPTKEDIKDYN” as the sequence, how does the “soluble on expression in E. coli” value read?
Answer: not soluble

Question: For “MRNVLKAETLERKFPLLSVENGCIVSKDADLTVAFEVELPELFTMTAAEYEAVHSSWVKAVKVLPDFSVVCKQDWFTKETYRPDFRDGEQSFLSKSYERHFNERPYLNHKCYLYLTKTTRERSRQRSDFNSLCCGSLLPKEMVDKDTAVRFLEAVEQFERIMNDSGHVSLRRLEADEITGTEGRPGLVEKYFSLSLEDETAVLQDICLNPGGMRVGDKRLCVHTLSDTEDLPVRVSTDMRYGRMSTDRSDCRLSFAAPVGLLLPCNHIYSQYVFIDDAQEILRTMEKTSRNMLSLSKYSRSNAVNREWTEMYLDEAHTKGVLPVRCHCNVMAWAEDREELRRVKNDTGSQLAMMECTPRHNTVDAPVLYWAGIPGNAGDFPAEESFYTFLEQAVCLFTAETNYRSSSSPFGIRMADRRNGIPLHVDISDLPMKRGIITNRNKFVLGPSGSGKSFFTNHLVRQYYEQGTHILLVDTGNSYQGLCRMIHDRTHGEDGIYITYEEDNPIAFNPFYTDSGQFDVEKRESIKTLILTLWKREDEAPKRSEEVALSGAVNAYIRRITDDRASRPDFNGFYEFVRDDYRRMIEQKKVREKDFDIDGFLNVLEPFYRGGDYDFLLNSDKELDLTNKRFIVFELDNISSNKVLLPVVTLIIMETFISKMRKLRGIRKMILIEECWKALMSANMSEYIKYLFKTVRKYFGEAVVVTQEVDDIISSDIVKEAIINNSDCKILLDQRKYMNKFEHIQKLLGLTEKERGQILSINRANRPGPFYREVWIGLGGTHSAVYATEVSAEEYAVRP”, which “soluble on expression in E. coli” value is on record?
Answer: not soluble

Question: For “MSIEQYFQHLACAPTSLNLIWFTVEMSELAKELPSKEAKTGLIKSIAHILHDEKFEKIRGDEAMLNLFEMLAKCSTKIGGAEVYKQAYGLDLFNYYKEFYFQWAHECGKIKSVSQFRTVFFLARSQLFYHLSPISIEKDFENIFQQYFGKLSMHHCLERTETLNKLFAGCSVEEFASAENVMSFGNSRELSGRSVDVRPNHRVLEVARGTMMSSSEISPNKSDSSVLLNKSPPTNSPIIKFGTYPKIHLQNVSSSMLNARRRQLTATVTTVDSQKGKPTFANETY”, which “soluble on expression in E. coli” value is on record?
Answer: not soluble

Question: For “MSLANWVASSTVTADGHHLLGNPAAKLRLVEFVSYTCPHCSHFEIESEGQLKIGMVQPGKGAIEVRNFVRDPIDMTVALITNCVPPSRFFTLHTAFMRSQAQWIGPLANSTEAQRQRWFNGTFATRTRAIASDFRFYDFMAARGMDRSTLDRCLSNEALAKKLAAETDEAINQYNVSGTPSFMIDGILLAGTHDWASLRPQILARLNEGHHHHHH”, which “soluble on expression in E. coli” value is on record?
Answer: soluble

Question: For “MGAQNSKRKDLKNINDEDYAHFMEKLKKHTDGKDKMTRDQFVAMFIPILGEYSSQFYFRLVKNEPQGVLLAKTILKCIDTGLGHFDQLADMLRFCFGDQKDQIMRNVVKIFCEGNKFTREDQVRLYDYFETENTKPVSELESFFSMCPLFAYCASFIFQRLLDKTGDSKMPILSDKTHLMGNIDQLVLNSHLPFDRRKNWTLLYSNMKHGQSFSQLVKCINGEGPCMIVIRSMKGRRFGFFASQGFLAGPQYRGTAECFLFQLAPKIATFDATGRTENYVYLNYQQQQHPNGLGIGGTESVWPLFIHEEFGGGTCQKNSSSFEPCHIAEEDEFKIKTIEAWRPGDKPQKSFEEQILLEERSPEKSIIDKDPEARAVLELAGKSMHSEAYRDPAPLLDGE”, which “soluble on expression in E. coli” value is on record?
Answer: not soluble
